Data taken from US20210054355A1 (NEW YORK UNIVERSITY, published 2021).

Assays:
[1] = biological target: T1, FGFR1c^ecto/ΔSLBS (FGFR1c^ecto carrying I203E) (human, UniProt P11362 142-365); assay: SEC-MALS, 1:1:1 ternary complex with FGF23 and αKlotho^ecto
T1 construct: also called FGFR1c^ΔSLBS
T1 sequence: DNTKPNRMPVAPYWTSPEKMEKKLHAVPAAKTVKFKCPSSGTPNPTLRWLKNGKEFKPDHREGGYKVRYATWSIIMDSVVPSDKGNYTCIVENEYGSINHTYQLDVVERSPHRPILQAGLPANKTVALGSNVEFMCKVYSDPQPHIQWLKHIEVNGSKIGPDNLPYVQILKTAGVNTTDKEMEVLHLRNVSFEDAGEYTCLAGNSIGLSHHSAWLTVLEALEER
Experimental: (§1) A Superdex 200 10/300 GL column (GE Healthcare, USA) was placed in-line between the HPLC pump (Waters 1525) and the HPLC UV (Waters 2998 Photodiode Array), laser light scattering, and refractive index detectors. Light scattering and refractive index detectors were calibrated following the manufacturer's guidelines. The refractive index increment (dn/dc) in which n is the refractive index and c is the concentration of the mixture of DDM and CHS in 20 mM Tris-HCl pH 8.0 buffer containing 300 mM NaCl, was determined offline using an Optilab T-rEX refractive index detector. Monomeric bovine serum albumin (#23210, Thermo Scientific, USA) was used as part of routine data quality control.
(§2) 60 ml or more of 25 mM HEPES pH 7.5 buffer containing 150 mM NaCl were passed through the system at a flow rate of 0.5 mL/min to equilibrate the Superdex 200 10/300 GL column and establish stable baselines for light scattering and refractive index detectors. Purified αKlotho^ecto, FGER1c^ecto (wild type or mutant), and FGF23 (wild type or mutant) proteins were mixed at a molar ratio of 1:1:1 and concentrated to 12.5 μM. 50 μl of protein samples with a molar equivalent of a heparin hexasaccharide (#H006, Iduron, Manchester, U.K.) were injected onto the gel filtration column, and the column eluent was continuously monitored for 280 nm absorbance, laser light scattering, and refractive index. In a separate set of experiments, 50 μl of 1:1:1 FGF23-FGFR1c^ecto-αKlotho^ecto ternary complex at 12.5 μM concentration was mixed with heparin hexasaccharide at molar ratios of 1:0.25, 1:0.5, 1:1, or 1:2, and the mixtures were injected onto the gel filtration column. 50 μl of ternary complex without added heparin hexasaccharide were run as a control. In yet another set of experiments, αKlotho^ecto (wild type or mutant) and FGER1c^ecto were mixed at a molar ratio of 1:1, and 50 μl of concentrated protein mixtures were injected onto the gel filtration column. 50 μl of concentrated αKlotho^ecto (wild type or mutant) alone were run as a control in these experiments. […]

[2] = biological target: T2, FGFR1c^ecto/ΔSLBS′ (FGFR1c^ecto carrying V221D) (human, UniProt P11362 142-365); assay: as above
T2 construct: also called FGFR1c^ΔSLBS′
T2 sequence: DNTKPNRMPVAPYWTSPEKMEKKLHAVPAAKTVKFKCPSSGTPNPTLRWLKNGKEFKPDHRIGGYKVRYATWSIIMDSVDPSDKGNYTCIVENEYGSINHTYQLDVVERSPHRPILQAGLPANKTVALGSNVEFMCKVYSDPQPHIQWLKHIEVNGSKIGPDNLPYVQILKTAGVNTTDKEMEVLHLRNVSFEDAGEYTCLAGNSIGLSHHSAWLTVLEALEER
Experimental: as §1, §2

[3] = biological target: T3, FGFR1c^ecto/ΔRRBS (FGFR1c^ecto carrying A171D) (human, UniProt P11362 142-365); assay: as above
T3 construct: also called FGFR1^ΔRRBS
T3 sequence: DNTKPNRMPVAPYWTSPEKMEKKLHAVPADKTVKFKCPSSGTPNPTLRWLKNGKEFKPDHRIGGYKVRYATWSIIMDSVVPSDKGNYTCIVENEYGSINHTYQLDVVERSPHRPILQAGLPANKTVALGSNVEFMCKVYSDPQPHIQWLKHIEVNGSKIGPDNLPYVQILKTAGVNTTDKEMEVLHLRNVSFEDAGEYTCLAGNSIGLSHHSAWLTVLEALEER
Experimental: as §1, §2

[4] = biological target: T4, αKlotho^ecto/ΔRBA (soluble αKlotho ectodomain lacking L544 to T565 of the KL2 β1α1 loop) (human, UniProt Q9UEF7 34-981); assay: size-exclusion chromatography of FGF23/αKlotho^ecto/ΔRBA mixture
T4 construct: the mature protein is E34 to S959; Expressed and purified like the wild type (pEF1α/myc-His A); also called α-Klotho^ecto/deltaRBA; αKlotho^ecto/ΔRBA mutant
T4 sequence: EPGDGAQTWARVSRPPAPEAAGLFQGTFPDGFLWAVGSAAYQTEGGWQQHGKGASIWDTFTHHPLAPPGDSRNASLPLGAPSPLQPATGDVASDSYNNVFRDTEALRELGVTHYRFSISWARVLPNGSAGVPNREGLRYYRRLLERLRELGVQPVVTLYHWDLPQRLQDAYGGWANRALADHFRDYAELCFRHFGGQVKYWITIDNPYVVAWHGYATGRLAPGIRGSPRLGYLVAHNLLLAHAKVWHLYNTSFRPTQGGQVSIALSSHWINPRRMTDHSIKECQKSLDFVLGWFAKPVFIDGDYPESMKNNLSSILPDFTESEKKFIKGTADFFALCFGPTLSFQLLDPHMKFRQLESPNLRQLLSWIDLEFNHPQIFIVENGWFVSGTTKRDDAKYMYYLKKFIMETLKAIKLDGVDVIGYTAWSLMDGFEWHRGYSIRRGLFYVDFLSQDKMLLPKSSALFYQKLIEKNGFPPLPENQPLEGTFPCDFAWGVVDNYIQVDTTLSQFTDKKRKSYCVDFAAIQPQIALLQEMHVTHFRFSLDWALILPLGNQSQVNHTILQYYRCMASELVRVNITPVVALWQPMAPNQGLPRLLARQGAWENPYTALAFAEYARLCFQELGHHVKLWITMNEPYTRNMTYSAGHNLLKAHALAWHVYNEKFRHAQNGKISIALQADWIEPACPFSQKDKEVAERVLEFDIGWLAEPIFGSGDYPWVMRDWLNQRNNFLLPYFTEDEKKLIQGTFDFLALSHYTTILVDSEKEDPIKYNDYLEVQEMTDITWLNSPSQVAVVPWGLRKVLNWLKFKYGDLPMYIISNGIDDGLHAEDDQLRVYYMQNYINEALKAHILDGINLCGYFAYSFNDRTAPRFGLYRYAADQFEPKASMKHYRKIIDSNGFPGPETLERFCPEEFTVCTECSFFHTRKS

Measured: binding result

B1: FGF23^WT (human FGF23 Y25 to S205 with R176Q/R179Q, protease-resistant minimal protein) (ligand)
chain: YPNASPLLGSSWGGLIHLYTATARNSYHLQIHKNGHVDGAPHQTIYSALMIRSEDAGFVVITGVMSRRYLCMDFRGNIFGSHYFDPENCRFQHQTLENGYDVYHSPQYHFLVSLGRAKRAFLPGMNPPPYSQFLSRRNEIPLIHFNTPIPRQHTQSAEDDSERDPLNVLKPRARMTPAPAS
notes: also called wild-type FGF23; minimal FGF23
binds: all assays above
